Among the data in PMC12441119 (2025) are Kd values, retold here.

The Kd is the concentration at which binding is half-saturated.

The labels stand for the following.
B1: STK4 (residues 1–326) K59R [human] / HOIP (residues 854–1072) [not stated] (parent complex)
chain 1: METVQLRNPPRRQLKKLDEDSLTKQPEEVFDVLEKLGEGSYGSVYKAIHKETGQIVAIRQVPVESDLQEIIKEISIMQQCDSPHVVKYYGSYFKNTDLWIVMEYCGAGSVSDIIRLRNKTLTEDEIATILQSTLKGLEYLHFMRKIHRDIKAGNILLNTEGHAKLADFGVAGQLTDTMAKRNTVIGTPFWMAPEVIQEIGYNCVADIWSLGITAIEMAEGKPPYADIHPMRAIFMIPTNPPPTFRKPELWSDNFTDFVKQCLVKSPEQRATATQLLQHPFVRSAKGVSILRDLINEAMDVKLKRQESQQREVDQDDEENSEEDEMD
chain 2: EYQAQGLAMYLQENGIDCPKCKFSYALARGGCMHFHCTQCRHQFCSGCYNAFYAKNKCPEPNCRVKKSLHGHHPRDCLFYLRDWTALRLQKLLQDNNVMFNTEPPAGARAVPGGGCRVIEQKEVPNGLRDEACGKETPAGYAGLCQAHYKEYLVSLINAHSLDPATLYEVEELETATERYLHVRPQPLAGEDPPAYQARLLQKLTEEVPLGQSIPRRRK

Variants of B1 are the subject of the test. Put plainly: ITC. In general terms: Isothermal titration calorimetry measures the heat released or taken up as one component is titrated into another.
With chain 1 R231E, the Kd was 97.9 µM.
